These results are taken from article PMC12527946, “Structural analyses define the molecular basis of clusterin chaperone function” (Nature Structural & Molecular Biology, 2025).

First the molecules themselves.
B1: receptor-associated protein (RAP) (natural protein, UniProt P30533 36-357, looked up)
chain: SREKNQPKPSPKRESGEEFRMEKLNQLWEKAQRLHLPPVRLAELHADLKIQERDELAWKKLKLDGLDEDGEKEARLIRNLNVILAKYGLDGKKDARQVTSNSLSGTQEDGLDDPRLEKLWHKAKTSGKFSGEELDKLWREFLHHKEKVHEYNVLLETLSRTEEIHENVISPSDLSDIKGSVLHSRHTELKEKLRSINQGLDRLRRVSHQGYSTEAEFEEPRVIDLWDLAQSANLTDKELEAFREELKHFEAKIEKHNHYQKQLEIAHEKLRHAESVGDGERVSRSREKHALLEGRTKELGYTVKKHLQDLSGRISRARHNEL
notes: LRPAP1 from plasmid pQTEV-LRPAP1; the signal peptide (amino acids 1–35) was removed; Purification is told in the Supplementary Information; also called LRPAP1; low density lipoprotein receptor-related protein-associated protein 1
B2: wild-type human clusterin (WT Clu) (natural protein)
chain 1: DQTVSDNELQEMSNQGSKYVNKEIQNAVNGVKQIKTLIEKTNEERKTLLSNLEEAKKKKEDALNETRESETKLKELPGVCNETMMALWEECKPCLKQTCMKFYARVCRSGSGLVGRQLEEFLNQSSPFYFWMNGDRIDSLLENDRQQTHMLDVMQDHFSRASSIIDELFQDRFFTREPQDTYHYLPFSLPHRRPHFFFPKSRIVR
chain 2: SLMPFSPYEPLNFHAMFQPFLEMIHEAQQAMDIHFHSPAFQHPPTEFIREGDDDRTVCREIRHNSTGCLRMKDQCDKCREILSVDCSTNNPSQAKLRRELDESLQVAERLTRKYNELLKSYQWKMLNTSSLLEQLNEQFNWVSRLANLTQGEDQYYLRVTTVASHTSDSDVPSGVTEVVVKLFDSDPITVTVPVEVSRKNPKFMETVAEKALQEYRKKHREE
modifications: N-glycans (six in the whole protein); five disulfide bonds to the α-chain | N-glycans (six in the whole protein); five disulfide bonds to the β-chain
notes: clusterin β-chain, human, residues 23–227 of the precursor; clusterin α-chain, human, residues 228–449 of the precursor; Almost completely processed by furin into β- and α-chain, which stay disulfide-linked; In the flotation assay it stood in DMPC nanodiscs (Clu–DMPC); also called apolipoprotein J; ApoJ
B3: denatured bovine rhodanese (D-Rho) (enzyme, UniProt P00586 1-297, looked up)
chain: MVHQVLYRALVSTKWLAESVRAGKVGPGLRVLDASWYSPGTREARKEYLERHVPGASFFDIEECRDKASPYEVMLPSEAGFADYVGSLGISNDTHVVVYDGDDLGSFYAPRVWWMFRVFGHRTVSVLNGGFRNWLKEGHPVTSEPSRPEPAIFKATLNRSLLKTYEQVLENLESKRFQLVDSRAQGRYLGTQPEPDAVGLDSGHIRGSVNMPFMNFLTEDGFEKSPEELRAMFEAKKVDLTKPLIATCRKGVTACHIALAAYLCGKPDVAIYDGSWFEWFHRAPPETWVSQGKGGKA
notes: rhodanese (33 kDa), bovine; Denatured in 6 M guanidinium–HCl and 5 mM DTT and diluted 120-fold into buffer; non-native, forms oligomers and aggregates

Data set [1] deals with VLDLR(28–797)Δ(751–779)-C-tag (VLDLR ectodomain) (human, UniProt P98155-2 28-797, Δ(751–779), Secreted from HEK293E, glycosylated, Ca2+-bound LDLR repeats, disulfides; C-terminal C-tag left out. Deletion 751-779 taken as printed, in the numbering of the long isoform). In words: ELISA; plate coated with 10 µg/ml VLDLR-ed; Clu or RAP in TBS-C pH 7.4, 2 mM CaCl2, 2% BSA, 0.05% Tween-20, 1 h at room temperature; background binding to BSA subtracted; one-site specific binding fit. Conditions: both partners purified.

Data set [2] addresses VLDLR(28–797)Δ(751–779)-C-tag (VLDLR ectodomain) (human, UniProt P98155-2 28-797, Δ(751–779)). The data set is described as above. The settings on record: both partners purified.
Data set [3] concerns the molecule itself. In words: SEC; 10 μM Clu in 20 mM MES-NaOH pH 6.5, HEPES-NaOH pH 7.5 or Tris-HCl pH 8.5, 100 mM NaCl, 1 mM EDTA, overnight or longer on ice; Superdex-200 Increase 3.2/300 at room temperature; monomers and dimers. A general note: SEC sorts molecules by how far they enter the pores of the column.
For data set [4], the target named is B2. In words: SEC; D-Rho diluted into PBS to 0.5 μM with 1.5 μM WT Clu, 30 min at 25 °C; soluble fraction on Superose-6, fractions by SDS-PAGE and immunoblotting against Rho and Clu. The settings on record: both partners purified.

Broadly, the Kd is the free concentration of one partner at which half of the binding sites on the other are occupied at equilibrium, for simple one-to-one binding. A low value points to tighter binding. As usually defined, the stoichiometry N is the number of molecules, sites or subunits per partner or assembly.

With B1, in data set [1], the Kd was approximately 1.2 nM.

Molecule B2 gave an equilibrium dissociation constant (Kd) in data set [2] of approximately 80 nM. In data set [3], the “stoichiometry N” value was 2.

Turning to B3, the binding result in data set [4] was “binds”.
